What is called Kd is the constant that tells how readily two partners part at equilibrium. Read a low Kd as tighter binding.

Experiment [1] concerns the target IFN alpha receptor (IFNAR) (UniProt P17181). The experiment can be described thus: cell-based or functional assay.
For experiment [2], the target named is IFN-alpha receptor 1 (IFNAR1) (UniProt P17181). The experiment can be described thus: SPR (Biacore X100); rhIFNAR2 immobilised on CM5 chip; 6.25-100 nM IFN fusion mixed with 100 nM IFNAR1 injected (ternary complex). On the technique in general: In SPR one partner is held on a chip, and binding of the other changes the refractive index at the surface.

“interferon alpha Fc fusion protein (IFNα-Fc)”: the IC50 (nM), antiviral activity (cytopathic effect inhibition, A549 cells, EMCV) in experiment [1] worked out at 0.0313 nM. In experiment [2], this substance came in with a Kd of 18 nM.

In experiment [1], “natural fibroblast derived human IFNβ-1a (Rebif®) (from UniProt P01574 22-187) (ligand)” returned an inhibition of osteopontin (OPN) production in stimulated human PBMC at 1.5 ng/mL of 88.4% and an inhibition of osteopontin (OPN) production in stimulated human PBMC at 10 ng/mL of 81.3%.
